Columns and labels:
[1] = target: T1, Mex67 (in Mex67-Mtr2 heterodimer);Mtr2 (in Mex67-Mtr2 heterodimer) (Saccharomyces cerevisiae;Saccharomyces …, UniProt Q99257;P34232 1-599;1-184, |); assay: EMSA; 4 uM RNA; full upshift at 2-fold, saturated at 5-fold molar excess; 30 mM HEPES-KOH, 160 mM KCl, pH 7.6, Ribolock, 30 C 15 min; 4 uM RNA with 4-44 uM Mex67-Mtr2 (competition 3 uM RNA, 12 uM protein); 0.5% agarose, 1x TAE pH 9.5, 4 C; details: protein: recombinant;recombinant; HisFF purification;; copies: 1;1; label: FAM; single strand
T1 sequence 1: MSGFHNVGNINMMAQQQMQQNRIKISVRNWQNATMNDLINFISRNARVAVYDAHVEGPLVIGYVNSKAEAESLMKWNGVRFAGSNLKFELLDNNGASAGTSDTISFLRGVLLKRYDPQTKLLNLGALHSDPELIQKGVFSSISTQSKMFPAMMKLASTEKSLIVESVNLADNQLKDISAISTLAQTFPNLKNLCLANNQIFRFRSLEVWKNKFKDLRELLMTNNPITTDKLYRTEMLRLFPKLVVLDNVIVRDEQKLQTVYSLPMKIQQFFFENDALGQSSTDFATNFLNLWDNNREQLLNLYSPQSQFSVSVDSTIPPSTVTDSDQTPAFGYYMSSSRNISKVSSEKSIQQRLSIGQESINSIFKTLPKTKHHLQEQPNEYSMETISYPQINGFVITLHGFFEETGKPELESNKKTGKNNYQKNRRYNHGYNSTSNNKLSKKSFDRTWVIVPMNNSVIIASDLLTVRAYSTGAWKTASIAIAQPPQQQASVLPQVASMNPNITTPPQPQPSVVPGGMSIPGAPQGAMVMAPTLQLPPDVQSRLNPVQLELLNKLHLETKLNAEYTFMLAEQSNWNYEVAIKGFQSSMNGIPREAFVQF
T1 sequence 2: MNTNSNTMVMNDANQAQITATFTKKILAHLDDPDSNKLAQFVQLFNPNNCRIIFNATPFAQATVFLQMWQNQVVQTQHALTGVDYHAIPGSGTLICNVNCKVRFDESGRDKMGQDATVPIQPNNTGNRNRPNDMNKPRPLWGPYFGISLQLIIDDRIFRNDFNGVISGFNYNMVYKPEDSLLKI

[2] = target: T1, Mex67 (in Mex67-Mtr2 heterodimer);Mtr2 …; assay: EMSA; 4 uM RNA; full upshift at 3-fold, saturated at 10-fold molar excess; 30 mM HEPES-KOH, 160 mM KCl, pH 7.6, Ribolock, 30 C 15 min; 4 uM RNA with 4-44 uM Mex67-Mtr2 (competition 3 uM RNA, 12 uM protein); 0.5% agarose, 1x TAE pH 9.5, 4 C; details: protein: recombinant;recombinant; HisFF purification;; copies: 1;1; label: FAM on one strand; blunt
[3] = target: T1, Mex67 (in Mex67-Mtr2 heterodimer);Mtr2 …; assay: competition; N4 added to complex preformed on N1; labels switched, same effect; 30 mM HEPES-KOH, 160 mM KCl, pH 7.6, Ribolock, 30 C 15 min; 4 uM RNA with 4-44 uM Mex67-Mtr2 (competition 3 uM RNA, 12 uM protein); 0.5% agarose, 1x TAE pH 9.5, 4 C; details: protein: recombinant;recombinant; HisFF purification;; copies: 1;1; label: Cy5 on one strand; blunt

B1: 36-nt ssRNA, FAM (ssRNA)
RNA: UUUUUUUUAUUGCCUGGUUGCCUGGUUAUUUCUAUU
binding result [1]: binds

B2: 36-bp dsRNA, FAM (dsRNA)
RNA 1: UUUUUUUUAUUGCCUGGUUGCCUGGUUAUUUCUAUU
RNA 2: AAUAGAAAUAACCAGGCAACCAGGCAAUAAAAAAAA
binding result [2]: binds

B3: 36-bp dsRNA, Cy5 (dsRNA)
RNA 1: UUAUAUGUCUUGUUCUCUUGUAUCUGUUCUUGUUGU
RNA 2: ACAACAAGAACAGAUACAAGAGAACAAGACAUAUAA
binding result [3]: binds
